No end group written: not given here.

In assay [1] the target is T1, His-tagged P3028 (human, not fully specified).
T1 construct: the tag is put first after 'PGE73=His-tag-P3028'; also called PGE73; not shown: His-tag
T1 peptide: {His‑tag}-VFDEFKPLVEEPQNLIK
The experiment in a line: chip ELISA.

Assay [2] addresses T2, His-tagged P3028 (human, also: His-tag, terminus and sequence not given here).
T2 construct: used in solution in the PEPSCAN (rampo) ELISA; also called PGE73; His-tag-P3028; not shown: His tag
T2 peptide: VFDEFKPLVEEPQNLIK
The experiment in a line: PEPSCAN ELISA (rampo). On the technique in general: In an ELISA, binding on a coated surface is turned into a signal by an enzyme label.

In assay [1], KKLDTFFFKLSLFTER [P28R V8F] showed an ELISA signal of 358.
In turn, KKLDTFFRKLSLFTER [P28R V8R] registered an ELISA signal in assay [1] of 365.
On the same count and under the same terms, the figure for KKLDTFFYKLSLFTER [P28R V8Y] is 211; for KKLDTFFKKLSLFTER (also called P27; SCF27) [P28R V8K] it is 253; for KKLDTFFMKLSLFTER [P28R V8M] it is 221.
On the same count and under the same terms, the figure for KKLDTFFQKLSLFTER [P28R V8Q] is 271.
Still for that read-out and setting: the figure for KKLDTFFWKLSLFTER [P28R V8W] is 228.
For KKLDTFFLKLSLFTER [P28R V8L], the ELISA signal in assay [1] amounted to 411.
Still for that read-out and setting: then KKLDTFFNKLSLFTER [P28R V8N], with 203; and KKLDTFFSKLSLFTER [P28R V8S], with 216; and KKLDTFFTKLSLFTER [P28R V8T], with 298.
The same measure, in the same setting: then KKLDTFFIKLSLFTER [P28R V8I], with 401.
Still for that read-out and setting: the figure for KKLDTFFHKLSLFTER [P28R V8H] is 213.
For the molecule RKLDTFFVKLSLFTER [SEQ ID NO 3], the rampo value in assay [2] is greater than 500 rampo units.
As to AKLDTFFVKLSLFTER [SEQ ID NO 268], the “rampo score relative to the P28R control sample” value in assay [2] was ≥ 98 % of P28R control.
Same read-out and setting: then HKLDTFFVKLSLFTER [SEQ ID NO 272], with ≥ 98 % of P28R control; and PKLDTFFVKLSLFTER [SEQ ID NO 277], with ≥ 98 % of P28R control.
In the case of KKLDTFFVKLSLFNER [SEQ ID NO 31], the rampo value in assay [2] was greater than 500 rampo units.
Still for that read-out and setting: then KKLDTFLVKLSLFTER [SEQ ID NO 13], with greater than 500 rampo units.
As to QKLDTFFVKLSLFTER [SEQ ID NO 278], the “rampo score relative to the P28R control sample” value in assay [2] is ≥ 98 % of P28R control.
On the same count and under the same terms, then KKMDTFFVKLSLFTER [SEQ ID NO 291], with ≥ 98 % of P28R control.
As to KKLDTFVVKLSLFTER [SEQ ID NO 11], the rampo value in assay [2] is greater than 500 rampo units.
Still for that read-out and setting: then KKLDTAFVKLSLFTER [SEQ ID NO 7], with greater than 500 rampo units.
For the molecule KKGDTFFVKLSLFTER [SEQ ID NO 287], the “rampo score relative to the P28R control sample” value in assay [2] was ≥ 98 % of P28R control.
The same measure, in the same setting: then KKKDTFFVKLSLFTER [SEQ ID NO 290], with ≥ 98 % of P28R control.
KKLDTFFVKLSLATER [SEQ ID NO 29] gave a rampo value in assay [2] greater than 500 rampo units.
Same read-out and setting: the figure for KKLDTFTVKLSLFTER [SEQ ID NO 12] is greater than 500 rampo units.
Take KKIDTFFVKLSLFTER [SEQ ID NO 289]: the “rampo score relative to the P28R control sample” value in assay [2] was ≥ 98 % of P28R control.
In assay [2], KKLDTFFVKLSLSTER [SEQ ID NO 27] had a rampo value greater than 500 rampo units.
As to EKLDTFFVKLSLFTER [SEQ ID NO 270], the “rampo score relative to the P28R control sample” value in assay [2] was ≥ 98 % of P28R control.
The molecule KKLDTFFVKLHLFTER [SEQ ID NO 18] came in with a rampo value in assay [2] greater than 500 rampo units.
As for TKLDTFFVKLSLFTER [SEQ ID NO 280], the “rampo score relative to the P28R control sample” value in assay [2] was ≥ 98 % of P28R control.
Take KKCDTFFVKLSLFTER [SEQ ID NO 283]: in assay [2], the “rampo score relative to the P28R control sample” value was ≥ 98 % of P28R control.
KKLDTFFVKLSVFTER [SEQ ID NO 20] registered a rampo value in assay [2] greater than 500 rampo units.
Take NKLDTFFVKLSLFTER [SEQ ID NO 276]: in assay [2], the “rampo score relative to the P28R control sample” value was ≥ 98 % of P28R control.
Turning to KKLDTFFVKLSQFTER [SEQ ID NO 19], the rampo value in assay [2] is greater than 500 rampo units.
Same read-out and setting: the figure for KKLDTFFVKLSLPTER [SEQ ID NO 26] is greater than 500 rampo units.
As to KKFDTFFVKLSLFTER [SEQ ID NO 286], the “rampo score relative to the P28R control sample” value in assay [2] is ≥ 98 % of P28R control.
On to KKLDTFFVKLSLFPER [SEQ ID NO 32], for which, in assay [2], the rampo value was greater than 500 rampo units.
For the molecule KKLDTFFVKLSLGTER [SEQ ID NO 28], the rampo value in assay [2] was greater than 500 rampo units.
With KKDDTFFVKLSLFTER [SEQ ID NO 284], the “rampo score relative to the P28R control sample” value in assay [2] is ≥ 98 % of P28R control.
For KKLDQFFVKLSLFTER [SEQ ID NO 6], the rampo value in assay [2] was greater than 500 rampo units.
Consider KKQDTFFVKLSLFTER [SEQ ID NO 293], for which the “rampo score relative to the P28R control sample” value in assay [2] is ≥ 98 % of P28R control.
As for KKEDTFFVKLSLFTER [SEQ ID NO 5], in assay [2], the rampo value is greater than 500 rampo units.
As for KKEDTFFVKLSLFTER [SEQ ID NO 285], in assay [2], the “rampo score relative to the P28R control sample” value is ≥ 98 % of P28R control.
On the same count and under the same terms, then GKLDTFFVKLSLFTER [SEQ ID NO 271], with ≥ 98 % of P28R control.
With KKGDTFFVKLSLFTER [SEQ ID NO 4], in assay [2], the rampo value was greater than 500 rampo units.
Turning to VKLDTFFVKLSLFTER [SEQ ID NO 281], in assay [2], the “rampo score relative to the P28R control sample” value is ≥ 98 % of P28R control.
The same measure, in the same setting: then KKHDTFFVKLSLFTER [SEQ ID NO 288], with ≥ 98 % of P28R control.
As to KKLDTFFVKLSLFRER [SEQ ID NO 33], the rampo value in assay [2] was greater than 500 rampo units.
KKNDTFFVKLSLFTER [SEQ ID NO 292]: the “rampo score relative to the P28R control sample” value in assay [2] is ≥ 98 % of P28R control.
The same measure, in the same setting: the figure for IKLDTFFVKLSLFTER [SEQ ID NO 273] is ≥ 98 % of P28R control.
As for KKLDTFFVKLTLFTER [SEQ ID NO 17], the rampo value in assay [2] was greater than 500 rampo units.
Consider RKLDTFFVKLSLFTER [SEQ ID NO 279], for which the “rampo score relative to the P28R control sample” value in assay [2] was ≥ 98 % of P28R control.
In assay [2], KKLDTFFVKVSLFTER [SEQ ID NO 14] returned a rampo value greater than 500 rampo units.
As for LKLDTFFVKLSLFTER [SEQ ID NO 274], the “rampo score relative to the P28R control sample” value in assay [2] was ≥ 98 % of P28R control.
On the same count and under the same terms, the figure for DKLDTFFVKLSLFTER [SEQ ID NO 269] is ≥ 98 % of P28R control.
The molecule KKLDTFFVKLSMFTER [SEQ ID NO 21] came in with a rampo value in assay [2] greater than 500 rampo units.
For the molecule MKLDTFFVKLSLFTER [SEQ ID NO 275], the “rampo score relative to the P28R control sample” value in assay [2] was ≥ 98 % of P28R control.
Molecule KKLDTVFVKLSLFTER [SEQ ID NO 8] displayed a rampo value in assay [2] greater than 500 rampo units.
In turn, KKLDTFFVKLSLRTER [SEQ ID NO 30] displayed a rampo value in assay [2] greater than 500 rampo units.
For the molecule KKADTFFVKLSLFTER [SEQ ID NO 282], the “rampo score relative to the P28R control sample” value in assay [2] was ≥ 98 % of P28R control.

Source of the values: patent US20170298096A1 (CANIMGUIDE THERAPEUTICS, published 2017).
